T1: Mutual gliding-motility protein B (MglB) (Myxococcus xanthus), Q1DB03
T1 chain: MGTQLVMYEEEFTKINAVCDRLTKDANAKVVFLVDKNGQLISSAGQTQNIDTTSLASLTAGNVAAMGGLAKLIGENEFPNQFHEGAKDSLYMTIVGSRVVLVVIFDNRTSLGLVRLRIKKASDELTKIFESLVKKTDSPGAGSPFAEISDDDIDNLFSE

B1: Mutual gliding-motility protein B (MglB), Q1DB03 1-159 (natural protein)
chain: T1 chain

Assays:
[1] = target: Mutual gliding-motility protein B (MglB) (Myxococcus xanthus) (UniProt Q1DB03); assay: ITC; 25 °C; 50 μM MglB in the cell titrated with 500 μM MglC; one set of sites model; triplicates
[2] = target: Mutual gliding-motility protein B (MglB) (Myxococcus xanthus) (UniProt Q1DB03); assay: SEC; analytical SEC, Superdex 200 Increase 10/300, 0.5 ml/min, A280; proteins alone or MglB:MglC mixed 1:1, 2:1 and 1:2; MglB mutants mixed with MglC 2:1
[3] = target: Mutual gliding motility protein C (MglC) (Myxococcus xanthus); assay: as above
[4] = target: Mutual gliding-motility protein B (MglB) (Myxococcus xanthus) (UniProt Q1DB03); assay: SAXS; SAXSpace line collimation, 20 °C; MglB 25, 15, 10 mg/ml; MglC 35, 15, 20 mg/ml; MglBC and MglB^ΔCTC complexes freshly eluted from SEC
[5] = target: Mutual gliding motility protein C (MglC) (Myxococcus xanthus); assay: as above
[6] = target: T1, Mutual gliding-motility protein B …; assay: as above; conditions: remark: other sources report otherwise
[7] = target: T1, Mutual gliding-motility protein B …; assay: SEC; analytical SEC, Superdex 200 Increase 10/300, 0.5 ml/min, A280; proteins alone or MglB:MglC mixed 1:1, 2:1 and 1:2; MglB mutants mixed with MglC 2:1; conditions: remark: other sources report otherwise

Row | Molecule | Kd [1] [nM] | dH [1] [kcal/mol] | stoichiometry N [1] | stoichiometry N (MglC per MglB) [2] | stoichiometry N [3] | stoichiometry N (MglC per MglB) [4] | stoichiometry N [5] | stoichiometry N [6] | stoichiometry N [7]
1 | Mutual gliding motility protein C (MglC) (natural protein) | 417 | 6.94 | 0.51 | 0.5 | 2 | 0.5 | 2 |  | 
2 | B1 |  |  |  |  |  |  |  | 2 | 2
